The target of assay [1] is human CD73 (cell-surface) (human) (UniProt P21589). Description: CD73 binding in cell lines (human), EC50 range; method not stated.
For assay [2] the target is unchanged. As to the kind of experiment: CD73 binding in cell lines (human), median EC50; method not stated.
Assay [3] shares this target. Description: cell-based or functional assay.

The source of these data is patent US20210147570A1.

Chain of human CD73 (cell-surface) (human) (P21589 27-549): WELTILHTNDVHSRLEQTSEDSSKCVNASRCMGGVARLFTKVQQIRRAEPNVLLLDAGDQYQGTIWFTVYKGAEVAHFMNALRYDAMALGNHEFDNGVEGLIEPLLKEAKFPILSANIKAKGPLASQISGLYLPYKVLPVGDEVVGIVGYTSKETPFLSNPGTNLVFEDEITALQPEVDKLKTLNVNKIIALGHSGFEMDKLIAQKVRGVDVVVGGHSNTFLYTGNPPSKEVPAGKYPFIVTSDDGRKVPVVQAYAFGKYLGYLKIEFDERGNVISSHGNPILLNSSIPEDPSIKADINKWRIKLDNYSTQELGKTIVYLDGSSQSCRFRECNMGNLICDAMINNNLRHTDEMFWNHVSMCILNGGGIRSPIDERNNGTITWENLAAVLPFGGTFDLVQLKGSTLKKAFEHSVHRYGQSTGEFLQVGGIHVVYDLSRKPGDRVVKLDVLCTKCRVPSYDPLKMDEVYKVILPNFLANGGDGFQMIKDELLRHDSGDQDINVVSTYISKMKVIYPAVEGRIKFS

B1: CD73.4-IgG2C219S.IgG1.1f (antibody, V domains shown)
VH: QVQLVESGGGVVQPGRSLRLSCAASGFTFSNYGMHWVRQAPGKGLEWVAVILYDGSNKYYPDSVKGRFTISRDNSKNTLYLQMNSLRAEDTAVYYCARGGSSWYPDSFDIWGQGTMVTVSS
VL: DIQMTQSPSSLSASVGDRVTITCRASQGISSWLAWYQQKPEKAPKSLIYAASSLQSGVPSRFSGSGSGTDFTLTISSLQPEDFATYYCQQYNSYPLTFGGGTKVEIKR
Take B1: in assay [1], the EC50 fell in the range of 0.3 to 0.67 nM. Further, the EC50 in assay [2] stood at 0.5 nM. In assay [3], this molecule registered a Cellular Enzyme Inhibition (blockade of AMP processing), median EC50 of 0.39 nM; an Internalization, max level of 97.5%; an Internalization, median EC50 of 1.2 nM.
